A short description of data set [1]: Mevalonate decarboxylation activity followed by inorganic phosphate production (ammonium molybdate method). Type of data set: biochemical. On the procedure: The reaction medium contained 100 mM mevalonate, 40 mM ATP, 10 mM MgCl2, 20 mM KCl, 0.5 mM DTT and enzyme preparation varying from 0.01 to 0.05 mg/ml of protein. 50 mM sodium citrate was used in the range of pH from 4 to 6, and 50 mM Tris-HCl for pH 7 and 7.5. Enzyme-free control assays were carried out in parallel. After 72 h incubation, inorganic phosphate was quantified colorimetrically according to the ammonium molybdate method (Gawronski J D, Benson D R, Anal. Biochem. 327 (2004) 114-118). A 50 μl sample (containing not more than 0.5 μmole of phosphate) was mixed with 150 μl of ammonium molybdate reagent containing 50% v/v acetone, 1.25 N H2SO4, 2.5 mM (NH4)6Mo7O24 and then with 10 μl 1 M citric acid. The mixture was incubated for 2 minutes at room temperature. The absorbance of ammonium phosphomolybdate formed was measured at 355 nm and the quantity of inorganic phosphate estimated using a calibration curve obtained with potassium phosphate.
(§1) The complete assay for mevalonate decarboxylation contains reaction buffer, 100 mM mevalonate, 40 mM ATP, 10 mM MgCl2, 20 mM KCl, 0.5 mM DTT and enzyme preparation at a concentration ranging from 0.01 to 0.05 mg/ml of protein. 50 mM sodium citrate is used in the range of pH from 4 to 6, and 50 mM Tris-HCl for pH 7 and 7.5. Control reactions are carried out in the absence of enzyme, substrate or co-factor.
Inorganic phosphate concentration is measured by spectroscopic colorimetry according to the ammonium molybdate method (Gawronski J D, Benson D R, Anal. Biochem. 327 (2004) 114-118). A 50 μl aliquot from the reaction assay (containing not more than 0.5 μmole of phosphate) is mixed with 150 μl ammonium molybdate reagent, containing 50% volume acetone, 1.25 N H2SO4, 2.5 mM (NH4)6Mo7O24 and then with 10 μl 1 M citric acid. The mixture is then incubated for 2 minutes at room temperature. The absorbance of ammonium phosphomolybdate formed was measured at 355 nm and the quantity of inorganic phosphate estimated using a calibration curve obtained with potassium phosphate.

Data set [2] can be described thus: Product formation as function of mevalonate concentration (permanganate assay). Type of data set: biochemical. The note with it: purified enzyme, range of mevalonate concentrations (FIG. 6). As to the method:
as §1
The formation of products containing double-bonds is followed by oxidization with alkaline potassium permanganate solution, resulting in increase of absorbance at 420 nm.
To an aliquot of reaction mixture diluted with H2O to 120 μl, 80 μl of permanganate reagent, containing 5 mM KMnO4 and 50 mM NaOH, is added. The mixture is kept at room temperature for 20 min and the absorbance at 420 nm is measured. The calibration curve is prepared using commercial isoprenol.

The source of these data is patent publication US9752163B2, “Process for the production of isoprenol from mevalonate employing a diphosphomevalonate decarboxylase” (Global Bioenergies, priority 2009, dated 2017).

B1: Thermoplasma acidophilum (accession number Q9H1N1): MDP decarboxylase enzyme inferred from the genome of Thermoplasma acidophilum (protein, listed as Thermoplasma acidophilum)
chain: MLHHHHHHTYRSIGSTAYPTIGVVLLGGIANPVTRTPLHTSAGIAYSDSCGSIRSETRIYADEATHIYFNGTESTDDNRSVRRVLDRYSSVFEEAFGTKTVSYSSQNFGILSGSSDAGAASIGAAILGLKPDLDPHDVENDLRAVSESAGRSLFGGLTITWSDGFHAYTEKILDPEAFSGYSIVAFAFDYQRNPSDVIHQNIVRSDLYPARKKHADEHAHMIKEYAKTNDIKGIFDLAQEDTEEYHSILRGVGVNVIRENMQKLISYLKLIRKDYWNAYIVTGGSNVYVAVESENADRLFSIENTFGSKKKMLRIVGGAWHRRPE
Regarding B1, in data set [1] (purified proteins (FIG. 5)), the “phosphate production with mevalonate as substrate” value (shortened to “phosphate production”) is given as “significant increase in phosphate production”.

B2: Picrophilus torridus MDP decarboxylase: diphosphomevalonate (MDP) decarboxylase EC 4.1.1.33 from Picrophilus torridus, expressed in E. coli from the native or codon-optimized gene (protein, listed as Picrophilus torridus)
chain: MENYNVKTRAFPTIGIILLGGISDKKNRIPLHTTAGIAYTGINNDVYTETKLYVSKDEKCYIDGKEIDLNSDRSPSKVIDKFKHEILMRVNLDDENNLSIDSRNFNILSGSSDSGAAALGECIESIFEYNINIFTFENDLQRISESVGRSLYGGLTVNYANGRESLTEPLLEPEAFNNFTIIGAHFNIDRKPSNEIHENIIKHENYRERIKSAERKAKKLEELSRNANIKGIFELAESDTVEYHKMLHDVGVDIINDRMENLIERVKEMKNNFWNSYIVTGGPNVFVITEKKDVDKAMEGLNDLCDDIRLLKVAGKPQVISKNF
modifications: DSM 9790
notes: diphosphomevalonate (MDP) decarboxylase EC 4.1.1.33 from Picrophilus torridus, expressed in E. coli from the native or codon-optimized gene
Consider B2, for which the conversion rate entry in data set [2] was “increase with the concentration of mevalonate”. Besides, the “enzyme activity with mevalonate as substrate” value in data set [1] (crude lysate of E. coli, optimized gene versus native sequence (FIG. 4b)) is on record as “higher enzyme activity”. For the same molecule, the “phosphate production” value in data set [1] (library screening, E. coli extracts, 100 mM mevalonate, 40 mM ATP, 72 h incubation) is given as “reproducible increase in phosphate production over the background level”.

B3: Thermoplasma volcanium (accession number Q97BY2): MDP decarboxylase enzyme inferred from the genome of Thermoplasma volcanium (protein, listed as Thermoplasma volcanium)
chain: MLHHHHHHSNSSITSVAYPTIGVVLLGGIANEKTRTPLHTSAGIAYTDSCGSIRTESTIYGDSEMHIYFNGTESKDENRSVKSVLERYRNELQSFFGKKDVSYSSLNYGILSGSSDAGAASIGAILSFIDKKNDIHDIENDIRMISESAGRSLHGGLTITWSDGYSAYTERVLGPEHFNNYAIVGFSFDYPRNPSDTIHQNIIKSKRYKQRTIDADEHAHEIKEMARTDDIEGIFEKAEEDTEEYHSILREVGVLVIRENMQKLIEFIKILRKEFWNSYIVTGGSNVYVIVRRDDLERLIHIKNTFGSKPKILNVAGPAWIKKVESD
In the case of B3, the “phosphate production” value in data set [1] (purified proteins (FIG. 5)) is given as “significant increase in phosphate production”.
